According to publication PMC4838190 (Molecular cell, 2015):

Target: cSH2 domain of PLCγ (isolated, solution experiments)
Assay: NMR titration

B1: activated FGFR2 kinase, mono-phosphorylated on Tyr-769 (FGFR2K^pY769) (domain or fragment)
chain: MGSSHHHHHHSQDPMLAGVSEFELPEDPKWEFPRDKLTLGKPLGEGAFGQVVMAEAVGIDKDKPKEAVTVAVKMLKDDATEKDLSDLVSEMEMMKMIGKHKNIINLLGACTQDGPLYVIVAYASKGNLREYLRARRPPGMELSPDINRVPEEQMTFKDLVSCTYQLARGMEYLASQKCIHRDLAARNVLVTENNVMKIADFGLARDINNIDFFKETTNGRLPVKWMAPEALFDRVYTHQSDVWSFGVLMWEIFTLGGSPYPGIPVEELFKLLKEGHRMDKPANCTNELYMMMRDCWHAVPSQRPTFKQLVEDLDRILTLTTNEEYLDLSQPLEQ
modifications: phosphotyrosine at 769
stoichiometry N: 1 FGFR2K^pY769 per cSH2
